Test results from patent publication CN107840889A (SHANGHAI JIBEI BIOLOGICAL TECH CO LTD, dated 2018).
“And” between values parts separate entries of the source, which are not always exact repeats. Equal entries are not always repeated.

T1: CD123-his-biotin抗原 (Homo sapiens (Human), UniProt P26951 19-305, biotin label (site not stated))
T1 construct: Bought from SinoBiological and biotin-labelled; also called CD123-Biotin; CD123抗原; not shown: his tag
T1 sequence: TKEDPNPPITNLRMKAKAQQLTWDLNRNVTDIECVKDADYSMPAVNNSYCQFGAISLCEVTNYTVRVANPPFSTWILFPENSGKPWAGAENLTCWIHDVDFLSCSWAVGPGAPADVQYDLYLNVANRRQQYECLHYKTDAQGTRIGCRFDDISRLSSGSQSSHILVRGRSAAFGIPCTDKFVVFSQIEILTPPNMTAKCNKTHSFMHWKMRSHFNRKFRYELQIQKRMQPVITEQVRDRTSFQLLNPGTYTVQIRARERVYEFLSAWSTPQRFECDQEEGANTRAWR


Target: T1, CD123-his-biotin抗原
Assay: BLI (Octet RED96), CD123-Biotin on AR2G sensor, scFv periplasmic extract as analyte
Parameters: 响应: unit not given here

Binder	koff	响应
scFv 26292 (scFv, V domains shown, Tested as an scFv in periplasmic extract of TG1 (pCANTAB 5E vector)) VH: QVQLQQPGAELVRPGASVKLSCKASGYTFTSYWMNWVKQRPDQGLEWIGRIDPYDSETHYNQKFKDKAILTVDKSSSTAYMQLSSLTSEDSAVYYCARGNWDDYWGQGTTLTVSS VL: DVQITQSPSYLAASPGETITINCRASKSISKDLAWYQEKPGKTNKLLIYSGSTLQSGIPSRFSGSGSGTDFTLTISSLEPEDFAMYYCQQHNKYPYTFGGGTKLEIK	0.000206 s⁻¹ and 0.00021 s⁻¹ and 0.000209 s⁻¹ and 0.000207 s⁻¹	
7G8 (scFv, V domains shown, also called 抗体7G8) VH: QVQLQQPGAELVRPGASVKLSCKASGYTFTSYWMNWVKQRPDQGLEWIGRIDPYDSETHYNQKFKDKAILTVDKSSSTAYMQLSSLTSEDSAVYYCARGNWDDYWGQGTTLTVSS VL: DVQITQSPSYLAASPGETITINCRASKSISKDLAWYQEKPGKTNKLLIYDASRRGSGIPSRFSGSGSGTDFTLTISSLEPEDFAMYYCQQHNKYPYTFGGGTKLEIK	0.000127 s⁻¹	0.463
4D1 (scFv, V domains shown, also called 抗体4D1) VH: QVQLQQPGAELVRPGASVKLSCKASGYQFTSYWMNWVKQRPDQGLEWIGRIDPYDSETHYNQKFKDKAILTVDKSSSTAYMQLSSLTSEDSAVYYCARGNWDDYWGQGTTLTVSS VL: DVQITQSPSYLAASPGETITINCRASKSISKDLAWYQEKPGKTNKLLIYSGSTLQSGIPSRFSGSGSGTDFTLTISSLEPEDFAMYYCQQHNKYPYTFGGGTKLEIK	0.000198 s⁻¹	0.25
4A6 (scFv, V domains shown) VH: QVQLQQPGAELVRPGASVKLSCKASGYTFQSYWMNWVKQRPDQGLEWIGRIDPYDSETHYNQKFKDKAILTVDKSSSTAYMQLSSLTSEDSAVYYCARGNWDDYWGQGTTLTVSS VL: DVQITQSPSYLAASPGETITINCRASKSISKDLAWYQEKPGKTNKLLIYSGSTLQSGIPSRFSGSGSGTDFTLTISSLEPEDFAMYYCQQHNKYPYTFGGGTKLEIK	0.000323 s⁻¹	0.106
4C3 (scFv, V domains shown) VH: QVQLQQPGAELVRPGASVKLSCKASGYTFTQYWMNWVKQRPDQGLEWIGRIDPFDSETHYNLQFKDKAILTVDKSSSTAYMQLSSLTSEDSAVYYCARGNWDDYWGQGTTLTVSS VL: DVQITQSPSYLAASPGETITINCRASKSISKDLAWYQEKPGKTNKLLIYSGSTLQSGIPSRFSGSGSGTDFTLTISSLEPEDFAMYYCQQHNKYPYTFGGGTKLEIK	0.000322 s⁻¹	0.083
2C5 (scFv, V domains shown) VH: QVQLQQPGAELVRPGASVKLSCKASGYTFTQYWMNWVKQRPDQGLEWIGRIDPYDSETHYNQKFKDKAILTVDKSSSTAYMQLSSLTSEDSAVYYCARSQVSDYWGQGTTLTVSS VL: DVQITQSPSYLAASPGETITINCRASKSISKDLAWYQEKPGKTNKLLIYSGSTLQSGIPSRFSGSGSGTDFTLTISSLEPEDFAMYYCQQHNKYPYTFGGGTKLEIK	0.000502 s⁻¹	0.177
5E10 (scFv, V domains shown) VH: QVQLQQPGAELVRPGASVKLSCKASGYTFTSYWMNWVKQRPDQGLEWIGRIDPYDSETHYNQKFKDKAILTVDKSSSTAYMQLSSLTSEDSAVYYCARGNWDDYWGQGTTLTVSS VL: DVQITQSPSYLAASPGETITINCRASKSISKDLAWYQEKPGKTNKLLIYSSSQRLSGIPSRFSGSGSGTDFTLTISSLEPEDFAMYYCQQHNKYPYTFGGGTKLEIK	0.000254 s⁻¹	0.24
6G9 (scFv, V domains shown) VH: QVQLQQPGAELVRPGASVKLSCKASGYTFTSYWMNWVKQRPDQGLEWIGRIDPYDSETHYNQKFKDKAILTVDKSSSTAYMQLSSLTSEDSAVYYCARGNWDDYWGQGTTLTVSS VL: DVQITQSPSYLAASPGETITINCCASNSINKDLIWYQEKPGKTNKLLIYSGSTLQSGIPSRFSGSGSGTDFTLTISSLEPEDFAMYYCQQHNKYPYTFGGGTKLEIK	0.000318 s⁻¹	0.163
3F8 (scFv, V domains shown) VH: QVQLQQPGAELVRPGASVKLSCKASGYTFTQYWMNWVKQRPDQGLEWIGRIDPYDSETHYNQKFKDKAILTVDKSSSTAYMQLSSLTSEDSAVYYCARGISQDFWGQGTTLTVSS VL: DVQITQSPSYLAASPGETITINCRASKSISKDLAWYQEKPGKTNKLLIYSGSTLQSGIPSRFSGSGSGTDFTLTISSLEPEDFAMYYCQQHNKYPYTFGGGTKLEIK	0.000558 s⁻¹	0.207
5B1 (scFv, V domains shown) VH: QVQLQQPGAELVRPGASVKLSCKASGYTFTSYWMNWVKQRPDQGLEWIGRIDPYDSETHYNQKFKDKAILTVDKSSSTAYMQLSSLTSEDSAVYYCARGNWDDYWGQGTTLTVSS VL: DVQITQSPSYLAASPGETITINCRASKSISKDLAWYQEKPGKTNKLLIYSGSTLQSGIPSRFSGSGSGTDFTLTISSLEPEDFAMYYCQQHNRYPYTFGGGTKLEIK	0.00012 s⁻¹	0.422
6G3 (scFv, V domains shown, also called 抗体6G3) VH: QVQLQQPGAELVRPGASVKLSCKASGYTFTSYWMNWVKQRPDQGLEWIGRIDPYDSETHYNQKFKDKAILTVDKSSSTAYMQLSSLTSEDSAVYYCARGNWDDYWGQGTTLTVSS VL: DVQITQSPSYLAASPGETITINCRASKSISKDLAWYQEKPGKTNKLLIYSSSRLSSGIPSRFSGSGSGTDFTLTISSLEPEDFAMYYCQQHNKYPYTFGGGTKLEIK	0.000192 s⁻¹	0.425
8A7 (scFv, V domains shown, 31 is used here; also called 抗体8A7) VH: QVQLQQPGAELVRPGASVKLSCKASGYTFTSYWMNWVKQRPDQGLEWIGRIDPYDSETHYNQKFKDKAILTVDKSSSTAYMQLSSLTSEDSAVYYCARGNWDDYWGQGTTLTVSS VL: DVQITQSPSYLAASPGETITINCRASKSISKDLAWYQEKPGKTNKLLIYSGSTLQSGIPSRFSGSGSGTDFTLTISSLEPEDFAMYYCQQTNRYPYTFGGGTKLEIK	0.000178 s⁻¹	0.471
7F1 (scFv, V domains shown, also called 抗体7F1) VH: QVQLQQPGAELVRPGASVKLSCKASGYTFTSYWMNWVKQRPDQGLEWIGRIDPYDSETHYNQKFKDKAILTVDKSSSTAYMQLSSLTSEDSAVYYCARGNWDDYWGQGTTLTVSS VL: DVQITQSPSYLAASPGETITINCRASKSISKDLAWYQEKPGKTNKLLIYSGSTLQSGIPSRFSGSGSGTDFTLTISSLEPEDFAMYYCQQSNKYPYTFGGGTKLEIK	2.47e-05 s⁻¹	0.486
2D2 (scFv, V domains shown, also called 抗体2D2) VH: QVQLQQPGAELVRPGASVKLSCKASGYKFQSYWMNWVKQRPDQGLEWIGRIDPYDSETHYNQKFKDKAILTVDKSSSTAYMQLSSLTSEDSAVYYCARGNWDDYWGQGTTLTVSS VL: DVQITQSPSYLAASPGETITINCRASKSISKDLAWYQEKPGKTNKLLIYSGSTLQSGIPSRFSGSGSGTDFTLTISSLEPEDFAMYYCQQHNKYPYTFGGGTKLEIK	0.00014 s⁻¹	0.145
